Results taken from the supplement of paper PMC9112550, “Optimization of the antimicrobial peptide Bac7 by deep mutational scanning” (BMC Biology, 2022).

These sequences were tested on Escherichia coli TOP10 (assay: shrunken log2 fold change of peptide-encoding DNA abundance (4.5 h post-induction vs induction); higher = less antimicrobial activity (less host growth inhibition)). Settings: time post-induction: 4.5 h; library: site-saturation at positions 5, 18, 19, 20.
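Also: peptides expressed intracellularly from a pBAD plasmid library in pooled LB shake-flask culture, induced with 0.3% L-arabinose, DNA abundance read by NGS, three biological replicates, DESeq2 with apeglm shrinkage.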

Point of comparison: RRIRMRPPRLPRPRPRPDYIPRP, “shrunken log2 fold change” value -0.354. Against it:
- RRIRIRPPRLPRPRPRPGIPPRP — within 0.2 log units, -0.225
- RRIRVRPPRLPRPRPRPHRYPRP — within 0.2 log units, -0.348
- RRIRRRPPRLPRPRPRPYYDPRP — lower, -1.02
- RRIRKRPPRLPRPRPRPIADPRP — higher, -0.125
- RRIRCRPPRLPRPRPRPVQSPRP — higher, 0.132
- RRIRKRPPRLPRPRPRPGFSPRP — higher, 0.297
- RRIRARPPRLPRPRPRPCDNPRP — within 0.2 log units, -0.273
- RRIRERPPRLPRPRPRPCLSPRP — higher, 0.0657
- RRIRKRPPRLPRPRPRPHRMPRP — higher, -0.0995
- RRIRSRPPRLPRPRPRPFYWPRP — higher, -0.0331
- RRIRDRPPRLPRPRPRPQNPPRP — higher, -0.00133
- RRIRIRPPRLPRPRPRPRNKPRP — higher, -0.0432
- RRIRARPPRLPRPRPRPEMCPRP — higher, 1.17
- RRIRMRPPRLPRPRPRPLNSPRP — higher, -0.0401
- RRIRMRPPRLPRPRPRPLAYPRP — higher, -0.093
- RRIRGRPPRLPRPRPRPSAMPRP — higher, 0.989
- RRIRARPPRLPRPRPRPYFLPRP — lower, -0.557
- RRIRERPPRLPRPRPRPEANPRP — higher, -0.00156
- RRIRKRPPRLPRPRPRPLQFPRP — higher, -0.076
- RRIRKRPPRLPRPRPRPRGCPRP — higher, 0.128
- RRIRARPPRLPRPRPRPRNDPRP — higher, 0.0481
- RRIRERPPRLPRPRPRPNDTPRP — within 0.2 log units, -0.348
- RRIRWRPPRLPRPRPRPGPAPRP — higher, 1.65
- RRIRHRPPRLPRPRPRPQWEPRP — higher, -0.0718
- RRIRWRPPRLPRPRPRPATFPRP — higher, 0.311
- RRIRLRPPRLPRPRPRPAQTPRP — higher, -0.00496
- RRIRGRPPRLPRPRPRPDEDPRP — higher, 0.168
- RRIRKRPPRLPRPRPRPRYHPRP — within 0.2 log units, -0.17
- RRIRHRPPRLPRPRPRPPRYPRP — higher, 0.0399
- RRIRFRPPRLPRPRPRPQITPRP — within 0.2 log units, -0.481
- RRIRHRPPRLPRPRPRPSIVPRP — higher, -0.0474
- RRIRNRPPRLPRPRPRPGNMPRP — lower, -1.16
- RRIRYRPPRLPRPRPRPAPNPRP — higher, -0.01
- RRIRYRPPRLPRPRPRPCNQPRP — within 0.2 log units, -0.224
- RRIRYRPPRLPRPRPRPWNWPRP — within 0.2 log units, -0.252
- RRIRMRPPRLPRPRPRPRGIPRP — higher, 0.0677
- RRIRCRPPRLPRPRPRPYTSPRP — within 0.2 log units, -0.526
- RRIRMRPPRLPRPRPRPSTQPRP — higher, 0.148
- RRIRKRPPRLPRPRPRPYHEPRP — higher, -0.112
- RRIRTRPPRLPRPRPRPLNKPRP — within 0.2 log units, -0.225
- RRIRTRPPRLPRPRPRPFMSPRP — higher, 0.0219
- RRIRLRPPRLPRPRPRPTKRPRP — higher, 0.00619
- RRIRFRPPRLPRPRPRPRWQPRP — higher, 0.229
- RRIRVRPPRLPRPRPRPGPRPRP — higher, 0.791
- RRIRMRPPRLPRPRPRPSKTPRP — higher, 0.00519
- RRIRQRPPRLPRPRPRPPDHPRP — within 0.2 log units, -0.27
- RRIRQRPPRLPRPRPRPLSMPRP — within 0.2 log units, -0.262
- RRIRERPPRLPRPRPRPIMIPRP — within 0.2 log units, -0.246
- RRIRERPPRLPRPRPRPCCMPRP — lower, -0.831
- RRIRWRPPRLPRPRPRPASWPRP — higher, 0.576
- RRIRARPPRLPRPRPRPQRAPRP — higher, 1.26
- RRIRTRPPRLPRPRPRPMNKPRP — within 0.2 log units, -0.373
- RRIRNRPPRLPRPRPRPLKEPRP — higher, 0.00854
- RRIRCRPPRLPRPRPRPRMVPRP — higher, 0.205
- RRIRLRPPRLPRPRPRPAMTPRP — higher, -0.113
- RRIRMRPPRLPRPRPRPECNPRP — higher, 0.0477
- RRIRFRPPRLPRPRPRPPGWPRP — higher, 0.448
- RRIRVRPPRLPRPRPRPKLRPRP — higher, 0.128
- RRIRRRPPRLPRPRPRPVPEPRP — higher, 0.543
- RRIRLRPPRLPRPRPRPELPPRP — higher, -0.0217
- RRIRIRPPRLPRPRPRPVCKPRP — within 0.2 log units, -0.21
- RRIRNRPPRLPRPRPRPTERPRP — within 0.2 log units, -0.25
- RRIRTRPPRLPRPRPRPMMLPRP — higher, 0.00466
- RRIRVRPPRLPRPRPRPYQTPRP — higher, -0.0531
- RRIRGRPPRLPRPRPRPYSAPRP — within 0.2 log units, -0.29
- RRIRKRPPRLPRPRPRPSRAPRP — higher, 0.521
- RRIRQRPPRLPRPRPRPSKYPRP — higher, -0.0779
- RRIRYRPPRLPRPRPRPSLTPRP — lower, -0.628
- RRIRQRPPRLPRPRPRPMSWPRP — higher, -0.0294
- RRIRLRPPRLPRPRPRPDEFPRP — higher, 0.0159
- RRIRPRPPRLPRPRPRPIWTPRP — within 0.2 log units, -0.262
- RRIRKRPPRLPRPRPRPCQRPRP — higher, -0.00088
- RRIRRRPPRLPRPRPRPPTWPRP — higher, 0.336
- RRIRQRPPRLPRPRPRPLVHPRP — within 0.2 log units, -0.203
